# PMC8262862
# Key:
# Experiment in all cases: ELISA
# H6 HA = molecular target: H6 HA
# H8 HA = molecular target: H8 HA
# H3 HA = molecular target: H3 HA
# H2 HA = molecular target: H2 HA
# H9 HA = molecular target: H9 HA
# H5 HA = molecular target: H5 HA
# H7 HA = molecular target: H7 HA
# H10 HA = molecular target: H10 HA
# H13 HA = molecular target: H13 HA
# H14 HA = molecular target: H14 HA
# H1 HA = molecular target: H1 HA
# B-Phuket HA = molecular target: B-Phuket HA
Substance,Kd (H6 HA),Kd (H8 HA),Kd (H3 HA),Kd (H2 HA),Kd (H9 HA),Kd (H5 HA),Kd (H7 HA),Kd (H10 HA),Kd (H13 HA),Kd (H14 HA),Kd (H1 HA),Kd (B-Phuket HA)
FI6v3,470 pM,240 pM,230 pM,300 pM,480 pM,250 pM,340 pM,9000 pM,1500 pM,380 pM,290 pM,> 100000 pM
CR8033,,,,,,,,,,,,110 pM
